One molecule from article PMC11402830 can be followed below.

For the experiment, the target named is T1, human peptidyl arginine deiminase 6 (human), Q6TGC4.
T1 chain: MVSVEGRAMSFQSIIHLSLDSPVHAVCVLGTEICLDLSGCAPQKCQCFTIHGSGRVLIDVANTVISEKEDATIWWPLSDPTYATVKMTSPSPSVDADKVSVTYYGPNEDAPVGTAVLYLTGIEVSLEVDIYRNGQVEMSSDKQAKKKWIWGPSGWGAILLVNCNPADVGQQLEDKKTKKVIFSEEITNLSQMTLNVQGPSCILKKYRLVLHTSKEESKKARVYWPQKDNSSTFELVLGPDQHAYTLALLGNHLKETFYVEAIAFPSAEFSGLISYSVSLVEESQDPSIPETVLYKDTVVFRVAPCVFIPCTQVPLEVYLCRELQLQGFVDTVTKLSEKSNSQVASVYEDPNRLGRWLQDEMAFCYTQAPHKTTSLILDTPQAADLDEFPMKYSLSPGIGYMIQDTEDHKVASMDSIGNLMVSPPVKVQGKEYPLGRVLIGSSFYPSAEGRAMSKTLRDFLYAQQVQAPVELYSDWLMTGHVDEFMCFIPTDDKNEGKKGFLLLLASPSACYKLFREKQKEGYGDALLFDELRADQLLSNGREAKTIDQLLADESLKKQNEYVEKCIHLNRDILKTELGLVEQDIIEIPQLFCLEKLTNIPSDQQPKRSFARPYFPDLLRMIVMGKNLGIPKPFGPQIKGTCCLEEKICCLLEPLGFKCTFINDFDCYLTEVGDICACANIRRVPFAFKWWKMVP
The experiment is described as follows: mass photometry; hPADI6 at 4 nM (diluted to about 40 nM in 50 mM Tris-HCl pH 7.5, 200 mM NaCl, 1 mM TCEP, then 2 uL into 18 uL PBS), TwoMP instrument; dimer to monomers. The following applies: remark: other sources report otherwise.

B1: human peptidyl arginine deiminase 6, Q6TGC4 1-694 (natural protein)
chain: MVSVEGRAMSFQSIIHLSLDSPVHAVCVLGTEICLDLSGCAPQKCQCFTIHGSGRVLIDVANTVISEKEDATIWWPLSDPTYATVKMTSPSPSVDADKVSVTYYGPNEDAPVGTAVLYLTGIEVSLEVDIYRNGQVEMSSDKQAKKKWIWGPSGWGAILLVNCNPADVGQQLEDKKTKKVIFSEEITNLSQMTLNVQGPSCILKKYRLVLHTSKEESKKARVYWPQKDNSSTFELVLGPDQHAYTLALLGNHLKETFYVEAIAFPSAEFSGLISYSVSLVEESQDPSIPETVLYKDTVVFRVAPCVFIPCTQVPLEVYLCRELQLQGFVDTVTKLSEKSNSQVASVYEDPNRLGRWLQDEMAFCYTQAPHKTTSLILDTPQAADLDEFPMKYSLSPGIGYMIQDTEDHKVASMDSIGNLMVSPPVKVQGKEYPLGRVLIGSSFYPSAEGRAMSKTLRDFLYAQQVQAPVELYSDWLMTGHVDEFMCFIPTDDKNEGKKGFLLLLASPSACYKLFREKQKEGYGDALLFDELRADQLLSNGREAKTIDQLLADESLKKQNEYVEKCIHLNRDILKTELGLVEQDIIEIPQLFCLEKLTNIPSDQQPKRSFARPYFPDLLRMIVMGKNLGIPKPFGPQIKGTCCLEEKICCLLEPLGFKCTFINDFDCYLTEVGDICACANIRRVPFAFKWWKMVP
On to B1, for which the dimer:monomer ratio at 4 nM (dimer:monomer) is 8 and the stoichiometry N (commonly the number of molecules, sites or subunits per partner or assembly) was found to be 2.
